# Experimental data taken from the DeepSol protein solubility set.
# Test: soluble on expression in E. coli; label from the status in PepcDB or PDB records
row,Sequence,soluble on expression in E. coli
1,MLLKALCIINALIIGIINADILSDPNYRIFRDISAIRQVVTLARPVKNVSTTELPTYYETNYNISRRVKRQACASSCAPLEKATTPAYEGLIATENFYITYSTDGSGCPIADLTCVGGDMATLDYLDQNGDIITLGDGGDDYNILEAQLKCFAFGWGAATATEVIDGNSLNCNVLTDIPVTTTTSTTSSTTTTTATSTTESTSTSTDSTTTESTTESTTESTSTSTDSTTTESTTESTTESTSTSTDSTTTESTSTSTDSTTTESTTESTTESTSTSTDSTTTSLPALPLILLQPSLPQNQLRSLPAHPLNLLQPSLPQNQLRSLPALPLILLQPSRQALPLILLQPSLPQNQLRSLPAHPRILPRPSLPALPLILLQPSLPQNQLRSLLAHPLILPRLSQQQNQLRSLPAHPPILLQPSLPQNQLRSLPALPLILLQPSLPLNQLRSLPAHPLILLQPSQQQNQLRSLPAHPLILPRPSLPLNQLRSLPAHPLILLQPSLPQNQLRSQPAHPLILPRLSQQAHPLIPPRPSRRALRLILPQLKLLLLRLTLQRQCQELHAVHLEVSGVNGLLTLLALQHVDLVHNKSTDVFALLKLIVEHARMGADVKIQNCNVGVCYFPLDSCCAGYTATVSGTLHICGPQPTTTTPAPNDETCCPLDGIWGAWGEWSVCTGTTCGNCGGSRTRTRVCASDSFCSCNGDTTESENCRLLSSWSEWTTTGTCNQTACGTCQTLTYTRTCLKTNGCFCMGSATKTDYCSRKPCATGTACCNSLTAQTVDGVSICGPVEAAEDETDPVPCTTTTPACCVLGGVWSEWSSGDACNDTCGNCGVTTLSRVCLSQDYNCACSGSTTKQSECAPAPCPFPRTSCCGARKKVIVGRTFECSSADDSDAAPSTLCAVDCCPAAGGYWSEWTTGGSCPTTCGSCSTVTQKRVCMSPSTCPCQGVSSRSVNCGITVCYFPDDSCCAGYSATVSGTQHICGPQPNYTTPYAPYDPTCTDNCCPETGIWSDWTSTPNQCRDYCGSCGNQTRTRTCTSDADGCPCQGPTTITEPCGTGVCYFPRLSCCPGYTATVEGNQHICGPLTTAVADPDKLNTCGVSCCPSAGIWGEWVSVSGCNDTCGSCGQETRKRKCLSLQYGCACTGNATDTSVCASSVCLFPRTSCCTGFKKMVNITGRTFYCGPLPVVPAFNPEQTTCCDPEKTGLWNDWGAWTTCSATCGGCGTQTRSRTCASAPYGCPCTGDLTETQSCAKQVCTTGAQCCAGKFVATGYDGAQYCQDNTPEVCTGTWTEWATLEGAVCNDTCGNCGIIPTSRYCFPSGCQCSGAYTGTQACANSVCLFPRTSCCAPYKKKIVGKTFACA,not soluble
2,MALTNAQILAVIDSWEETVGQFPVITHHVPLGGGLQGTLHCYEIPLAAPYGVGFAKNGPTRWQYKRTINQVVHRWGSHTVPFLLEPDNINGKTCTASHLCHNTRCHNPLHLCWESADDNKGRNWCPGPNGGCVHAVVCLRQGPLYGPGATVAGPQQRGSHFVV,soluble
3,MLREIPTHLIGGPLGAGKTSLIRSLLAQKPAGERWAVLVNEFGEIGLDAALLATDVDGVAIGEVAGGCLCCVNGVPFQVGLGRLLRRARPDRLFIEPSGLGHPQALWKQLQAPPWSGVLALQPLVVVLDAAALASGQPLPEAQEQALEAAGMLLLNKSETLDATQRCAVRARLPVLPLRWSVRGHLALRDLPTSVAGEGSATTWAALPEAPAQLGTVLLAERPLRAVREQDGQFAIGWRRRCVSIGPQWTPGLEHHHHHH,not soluble
4,MSQSLFSQPLNVINVGIAMFSDDLKKQHVEVTQLDWTPPGQGNMQVVQALDNIADSPLADKIAAANQQALERIIQSHPVLIGFDQAINVVPGMTAKTILHAGPPITWEKMCGAMKGAVTGALVFEGLAKDLDEAAELAASGEITFSPCHEHDCVGSMAGVTSASMFMHIVKNKTYGNIAYTNMSEQMAKILRMGANDQSVIDRLNWMRDVQGPILRDAMKIIGEIDLRLMLAQALHMGDECHNRNNAGTTLLIQALTPGIIQAGYSVEQQREVFEFVASSDYFSGPTWMAMCKAAMDAAHGIEYSTVVTTMARNGVEFGLRVSGLPGQWFTGPAQQVIGPMFAGYKPEDSGLDIGDSAITETYGIGGFAMATAPAIVALVGGTVEEAIDFSRQMREITLGENPNVTIPLLGFMGVPSAIDITRVGSSGILPVINTAIAHKDAGVGMIGAGIVHPPFACFEKAILGWCERYGV,soluble
5,MGHHHHHHSHMEKRKPTIQNIEVSDHTAELSLRVDADILDFQGHFSHFPLLPGVTQIDWALFYAVQYLNTPKVFKGMEVIKFQEPILPNADVCLSLSWDNEREKLTFKYTSKNGETLVTHSSGKMKLGESRE,soluble
6,MSIDMHCHLDLYPRPDLVAEESKRRGTYILSVTTTPKAWHGTSLLAKESQRIRTALGLHPQIAHQRSHELDLFDSLLSETKYVGEIGLDGGQGFKEHWDIQLKVFRHILNSVNRAGGKIMTIHSRGSASAVLDEIENIDGVAILHWFTGTPKQLERAIDLGCWFSVGPAMLDTIKGKALVLKIPKSRILTETDGPFAKFRNDPLMPWDSGIAEKQLAALWGISQMEVNAQLVDNFKVLCTS,soluble
7,MSTPSLYEMLTFSFSGELPLEQISERDQLILSVMDNMQRIINCRAGTLAHLPDYGLPDLSLIHQGMAAGIHGLMRQIEETLLRYEPRLSQIQVELLPQPRPGHLNYLIHAQLPDTGWIRFDGVFSPEGRIVLRHLKQQERAY,not soluble
8,MGSSHHHHHHSSGLVPRGSHMAKVNAFSKKIGWIEFITGPMFAGKTAELIRRLHRLEYADVKYLVFKPKIDTRSIRNIQSRTGTSLPSVEVESAPEILNYIMSNSFNDETKVIGIDEVQFFDDRICEVANILAENGFVVIISGLDKNFKGEPFGPIAKLFTYADKITKLTAICNECGAEATHSLRKIDGKHADYNDDIVKIGCQEFYSAVCRHHHKVPNRPYLNSNSEEFIKFFKNKKRNKNI,soluble
9,MKPRVEILMSTYNGEKFLAEQLDSILAQTHQYFVLTVRDDGSKDGTPDILSRYAATDERITYCVQENRGVVGSFYWLLKNSSPLSNYVAFSDQDDVWLPNKLERALDVLSRYDETLPLLYCSRVEYVSAGLGHLDDSPMMVRPVCLNNALIQNVATGCTVVMNKAARDLLLEREWPPQVLMHDWWSYIVVSAFGKVVYDDFVSIKYRQHGGNVIGGTVSFVSDYRSRIINFLSRRRKGVFGCYDQAYSFWLGYKDELKGESRGIVSQFIESKRSFLSRLNYLTSSQRVYRHRFIDDVLVRLLILSNKYLEHHHHHH,not soluble
10,MGSDKIHHHHHHMITHRSDLNANYLLNALPRSEWESLAQHVELVRLRAGELLTDSGQRIVHVYFPTTSVVSLLSLLEDGATVEIAAVGNEGLVGVPVVTGGDTMPCRVEVRSPGLAYRIPARLLRSELPRTPTLQRVTLLYVQAMLTQIAQTAACNRHHSLNKQLCRWLLLAVDRLSSNELVITQQVIANMLGVRREGVTEAAGKLEDLGLIHHSRGHITVLDRCGLEKHSCECYKLVKREYDRLLPALAHA,not soluble
11,MSLIHEISENEKPREKLQNYGIEALSSSELVALIIETGTKNESVLTIANRIIMKFKNVGEMQYASIEEFQLVNGIGIAKASKIMAAIELGRRIGIVTEQEEVVVRCPEDAVKLVMPELAFLFQEHFHCLFLNTKNQVIYRQTIFVGGLNASIVHPREVFRLALRKSAASIMCFHNHPSGDPTPSSEDLLVTKRLAEAGNIVGITLLDHIIIGKNKYISLKEKGYFEGHHHHHH,not soluble
12,MGSDKIHHHHHHMTSSVASDLSSFVRFADIPPEFQPTDAHPIRVRSRLMPSGRRIARHTHAWAQVAYASRGVLRVATTGTTWMVPPSRAIWVPPHVTHEVVAVEDAFLRTLYITESTVPAGLDTPRVVEVSDLLREVIAALDTPGISATREQLLGALALDELTRSEPLPLSVPMPNEKRLRALCEAVIADPTHGESLEQWASSVGASTRTIARLFRQELGVSFSQWRQQAILARAIPLLSQGRPLSHVALELGYQSQSAFSAMFRRAFGESPRAFIERGSEHRVEDGERGDMETDNETAAQDRADVADVADVADDAGDAGDAGDTGDTGDTGDVGDVGDADDSEL,not soluble
13,MSLNIFDHYRQRYEAAKDEEFTLQEFLTTCRQDRSAYANAAERLLMAIGEPVMVDTAQDPRLSRLFSNRVIARYPAFEEFYGMEDAIEQIVSYLKHAAQGLEEKKQILYLLGPVGGGKSSLAERLKSLMQLVPIYVLSANGERSPVNDHPFCLFNPQEDAQILEKEYGIPRRYLGTIMSPWAAKRLHEFGGDITKFRVVKVWPSILQQIAIAKTEPGDENNQDISALVGKVDIRKLEHYAQNDPDAYGYSGALCRANQGIMEFVEMFKAPIKVLHPLLTATQEGNYNGTEGISALPFNGIILAHSNKSEWVTFRNNKNNEAFLDRVYIVKVPYCLRISEEIKIYEKLLNHSELTHAPCAPGTLETLSRFSILSRLKEPENSSIYSKMRVYDGESLKDTDPKAKSYQEYRDYAGVDEGMNGLSTRFAFKILSRVFNFDHVEVAANPVHLFYVLEQQIEVYWQEGHHHHHH,not soluble
14,MSLGELPPAPSDSKRTVFLDIDETLVHVTPYPLPFVKPDATFLLQEHRRPSDPPGVSPEYLPGVSAGAAPRAALLHVYYRPFLMPFLENLLQTNRCELVAFTAALREYADPILDGIETKLGGARGSVFAARLYRQHCARAPRSKDLVHAAPSRCLSRCVLLDNSVVSLAAQLANGLLLRPFYGDPQDRELEGVLAFLLDLLEKTGDIRESMKESGMLHKVTEGHHHHHH,not soluble
15,SNAMTQSPIFLTPVFKEKIWGGTALRDRFGYSIPSESTGECWAISAHPKGPSTVANGPYKGKTLIELWEEHREVFGGVEGDRFPLLTKLLDVKEDTSIKVHPDDYYAGENEEGELGKTECWYIIDCKENAEIIYGHTARSKTELVTMINSGDWEGLLRRIKIKPGDFYYVPSGTLHALCKGALVLETQQNSDATYRVYDYDRLDSNGSPRELHFAKAVNAATVPHVDGYIDESTESRKGITIKTFVQGEYFSVYKWDINGEAEMAQDESFLICSVIEGSGLLKYEDKTCPLKKGDHFILPAQMPDFTIKGTCTLIVSHI,soluble
16,GSPPAQLSVHTVSWNSGHERAPTNLEELLGLNSGETPDVIAVAVQGFGFQTDKPQQGPACVKNFQSLLTSKGYTKLKNTITETMGLTVYCLEKHLDQNTLKNETIIVTVDDQKKSGGIVTSFTIYNKRFSFTTSRMSDEDVTSTNTKYAYDTRLDYSKKDDPSDFLFWIGDLNVRVETNATHAKSLVDQNNIDGLMAFDQLKKAKEQKLFDGWTEPQVTFKPTYKFKPNTDEYDLSATPSWTDRALYKSGTGKTIQPLSYNSLTNYKQTEHRPVLAKFRVTL,soluble
17,MNTVFSNIANAKITEKSLNAVWMDLFKSADEVLMATGYVSNDAVVELHKILELNDHIQKIDLLVGMHYLEGFSHLQYDSLCKLNDFLRHEKRGAVYVSPFVKFHGKMYSFKNYQKINGLIGSANLTCFWDSTERTYETMLHLNGKPAQILQADIQSTIHKLGKNIQEVERPSKFIEHNSHLENCLGVQKIAPEQIRQLFAQTSEYHFSIPAKTEEKSNLNVFFGEGRRDKRGFVKPRPWYEVELIVSKDITSQEGYPVLKSFTVITDDGWQFQCKTSGDYSKNFRSENDLKTLGKWIKGRLESHGCLQNNEKITHETLREYGNDHFELRSTDNPDVWLLSFKGKN,not soluble
18,MGSDKIHHHHHHMKIGFIGTGNMGTILIESFIESKAADPSNMTITNRTIEKALHIKNRYNSINVTESLEKLVSENEMIFICVKPLDIYPLLARALPYLRKDHILISITSPVQTEQLEQYVPCQVARVIPSITNRALAGVSLVTFGTSCGESAKAKINELMQHISHPLQIESDITRVASDIVSCGPAFMSYLIQRFIDAAVSETSVSKQDAILMCKEMLVGMGKLLETELYTLPALQEKVCVKGGVTGEGIKALESGVQDMFHRVFQNTHMKYEEDISAVKKQFHV,not soluble
